What was measured:
[1] = molecular target: the molecule itself; assay: cross-linking; 0.1 mM protein, EGS 0.5 and 1 mM, 50 mM sodium phosphate, 150 mM NaCl, pH 7.2, room temperature, 10 min; self-association
[2] = molecular target: the molecule itself; assay: SEC; Superdex 75, 50 mM sodium phosphate pH 7.0, 150 mM NaCl; apparent molecular weight from the elution volume; self-association
GapR [3] = molecular target: T1, GapR (Caulobacter crescentus, UniProt B8H4R9 1-89); assay: ITC; ITC: 50 mM sodium phosphate pH 7.0, 200 mM NaCl, 4 C; 25 uM GapR tetramer in cell, 0.25 mM DNA injected; NMR: 0.1 mM tetramer, 0.02-0.1 mM DNA; conditions: protein: recombinant, tags: C-terminal His6 (pET-21a), chain copies: 4, blunt
T1 sequence: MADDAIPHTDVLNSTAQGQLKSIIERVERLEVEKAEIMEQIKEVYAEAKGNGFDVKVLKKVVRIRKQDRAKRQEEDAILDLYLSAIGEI

GapR [4] = molecular target: T1, GapR; assay: ITC; netropsin-bound DNA; ITC: 50 mM sodium phosphate pH 7.0, 200 mM NaCl, 4 C; 25 uM GapR tetramer in cell, 0.25 mM DNA injected; NMR: 0.1 mM tetramer, 0.02-0.1 mM DNA; conditions: protein: recombinant; tags: C-terminal His6 (pET-21a); chain copies: 4; blunt
GapR G87A = molecular target: T2, GapR G87A (Caulobacter crescentus, UniProt B8H4R9 1-89, G87A); assay: NMR (1H-15N HSQC titration); minor peaks disappear on DNA addition; ITC: 50 mM sodium phosphate pH 7.0, 200 mM NaCl, 4 C; 25 uM GapR tetramer in cell, 0.25 mM DNA injected; NMR: 0.1 mM tetramer, 0.02-0.1 mM DNA; conditions: protein: recombinant; tags: C-terminal His6 (pET-21a); chain copies: 4; blunt
T2 sequence: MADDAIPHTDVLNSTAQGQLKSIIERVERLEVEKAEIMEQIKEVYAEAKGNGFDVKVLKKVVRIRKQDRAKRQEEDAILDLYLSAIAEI

[5] = molecular target: the molecule itself; assay: SEC-MALS; Superdex-75 HR 10/30, 50 mM sodium phosphate pH 7.0, 150 mM NaCl, 25°C; free GapR 0.5, 1.0 and 2.0 mg/mL, GapR^ΔC17 2.0 mg/ml; self-association

B1: GapR (growth-associated A/T-binding protein involved in regulation), full length, residues 1-89 (natural protein, C. crescentus, UniProt B8H4R9 1-89, looked up)
chain: MADDAIPHTDVLNSTAQGQLKSIIERVERLEVEKAEIMEQIKEVYAEAKGNGFDVKVLKKVVRIRKQDRAKRQEEDAILDLYLSAIGEI
notes: GapR of Caulobacter crescentus, gene CCNA_03428, residues 1-89 (full length); theoretical monomer mass 11.2 kDa as printed; A selenomethionyl derivative was used for MAD phasing of the GapR/10A complex structure; 15N- or 13C-labelled for NMR; also called free GapR; full-length GapR; source: E. coli Rosetta (DE3), purified (Ni-NTA, size-exclusion chromatography on Superdex 75)
stoichiometry N [1]: 4

B2: GapR^ΔC8 (residues 1-81) (domain or fragment, C. crescentus, UniProt B8H4R9 1-81, looked up)
chain: MADDAIPHTDVLNSTAQGQLKSIIERVERLEVEKAEIMEQIKEVYAEAKGNGFDVKVLKKVVRIRKQDRAKRQEEDAILDL
notes: GapR of Caulobacter crescentus, gene CCNA_03428, residues 1-81; also called C-terminal truncation mutant; source: E. coli Rosetta (DE3), purified (Ni-NTA, size-exclusion chromatography)
stoichiometry N [2]: 2

B3: 11AT (dsDNA)
DNA 1: TTAAAATTAAA
DNA 2: TTTAATTTTAA
Kd (GapR [3]): 12.3 ± 4.5 nM

B4: 6CpG (dsDNA)
DNA 1: CGCGCGCGCGCG
DNA 2: CGCGCGCGCGCG
Kd (GapR [3]; self-complementary): 118 ± 17 nM

B5: seq2 (dsDNA)
DNA 1: CGTGTTTTCGG
DNA 2: CCGAAAACACG
Kd (GapR [3]): 72 ± 19 nM

B6: 5ApT (dsDNA)
DNA 1: CCGATATATATATCGC
DNA 2: GCGATATATATATCGG
Kd (GapR [3]): 12.3 ± 8.9 nM
Kd (GapR [4]): 16.6 ± 4.5 nM

B7: seq1 (dsDNA)
DNA 1: GCGAAATTGATCG
DNA 2: CGATCAATTTCGC
Kd (GapR [3]): 72 ± 24 nM

B8: GapR^ΔN10 (residues 11-89) (domain or fragment, C. crescentus, UniProt B8H4R9 11-89, looked up)
chain: VLNSTAQGQLKSIIERVERLEVEKAEIMEQIKEVYAEAKGNGFDVKVLKKVVRIRKQDRAKRQEEDAILDLYLSAIGEI
notes: GapR of Caulobacter crescentus, gene CCNA_03428, residues 11-89; pET-28a(+) with a thrombin-cleavable N-terminal His6-tag; the tag was removed by thrombin; also called N-terminal truncation mutant; source: E. coli Rosetta (DE3), purified (Ni-NTA, thrombin cleavage, size-exclusion chromatography); not shown: His6, N-terminal, cleaved
binding result [2]: binds

B9: 10A (dsDNA)
DNA 1: CCGAAAAAAAAAACGC
DNA 2: GCGTTTTTTTTTTCGG
Kd (GapR [3]): 11.6 ± 2.5 nM
binding result (GapR G87A): binds

B10: GapR^ΔC17 (residues 1-72) (domain or fragment, C. crescentus, UniProt B8H4R9 1-72, looked up)
chain: MADDAIPHTDVLNSTAQGQLKSIIERVERLEVEKAEIMEQIKEVYAEAKGNGFDVKVLKKVVRIRKQDRAKR
notes: GapR of Caulobacter crescentus, gene CCNA_03428, residues 1-72; theoretical dimer mass 18.6 kDa as printed; also called C-terminal truncation mutant; source: E. coli Rosetta (DE3), purified (Ni-NTA, size-exclusion chromatography)
stoichiometry N [5]: 2

Reference: article PMC7498317, “GapR binds DNA through dynamic opening of its tetrameric interface” (Nucleic Acids Research, 2020)
